Reference: US20260070974A1 (NONA BIOSCIENCES SUZHOU, published 2026)
“And” between values parts separate entries of the source, which are not always exact repeats. Equal values may be shown once.

Tests used:
[1] = target: T1, human Siglec-3-his protein (Acrobiosystems, Cat CD3-H5226) (human, UniProt P20138 18-259); test: ELISA on coated human Siglec-3-his, antibody at 100 nM and 10 nM, goat anti-human IgG-HRP, OD450
T1 construct: Bought protein; not shown: his tag
Description: (§1) Human Siglec-15 ECD-his protein (Acrobiosystems, Cat SG5-H52H3), human Siglec-2-his protein (Acrobiosystems, Cat CD2-H52H8), human Siglec-4a-his protein (Acrobiosystems, Cat MAG-H52H8), human Siglec-3-his protein (Acrobiosystems, Cat CD3-H5226), human Siglec-10-his protein (Acrobiosystems, Cat SIO-H52H9), and human PD-L1/B7-H1-his protein (Acrobiosystems, Cat PD1-H5229), each at 1 μg/mL and dissolved in PBS, were each added to an ELISA plate at 100 μL/well for coating and the plate was incubated overnight at 4° C. The ELISA plate was then blocked with PBST (PBS+0.05% Tween 20) containing 2% BSA at 200 μL/well and incubated at 37° C. for 1 h. The ELISA plate was washed 4 times with PBST. The anti-Siglec-15 antibody diluted in a gradient (concentrations: 100 nM and 10 nM) was added to the ELISA plate at 100 μL/well and the plate was incubated at 37° C. for 1 h. The ELISA plate was washed 4 times with PBST. The goat anti-human IgG (H+L)-HRP (1:5000, Jackson, Cat 109-035-088) was added at 100 μL/well and the plate was incubated at 37° C. for 1 h. The ELISA plate was washed 4 times with PBST. The TMB substrate (Biopanda, Cat TMB-S-003) was added at 100 μL/well, and the plate was incubated at room temperature for 5 min, and then the stop buffer (Solarbio, Cat #: C1058) was added at 100 μL/well to stop the reaction.

[2] = target: T2, human Siglec-2-his protein (Acrobiosystems, Cat CD2-H52H8) (human, UniProt P20273 20-687); test: ELISA on coated human Siglec-2-his, antibody at 100 nM and 10 nM, goat anti-human IgG-HRP, OD450
T2 construct: Bought protein; not shown: his tag
T2 sequence (looked up): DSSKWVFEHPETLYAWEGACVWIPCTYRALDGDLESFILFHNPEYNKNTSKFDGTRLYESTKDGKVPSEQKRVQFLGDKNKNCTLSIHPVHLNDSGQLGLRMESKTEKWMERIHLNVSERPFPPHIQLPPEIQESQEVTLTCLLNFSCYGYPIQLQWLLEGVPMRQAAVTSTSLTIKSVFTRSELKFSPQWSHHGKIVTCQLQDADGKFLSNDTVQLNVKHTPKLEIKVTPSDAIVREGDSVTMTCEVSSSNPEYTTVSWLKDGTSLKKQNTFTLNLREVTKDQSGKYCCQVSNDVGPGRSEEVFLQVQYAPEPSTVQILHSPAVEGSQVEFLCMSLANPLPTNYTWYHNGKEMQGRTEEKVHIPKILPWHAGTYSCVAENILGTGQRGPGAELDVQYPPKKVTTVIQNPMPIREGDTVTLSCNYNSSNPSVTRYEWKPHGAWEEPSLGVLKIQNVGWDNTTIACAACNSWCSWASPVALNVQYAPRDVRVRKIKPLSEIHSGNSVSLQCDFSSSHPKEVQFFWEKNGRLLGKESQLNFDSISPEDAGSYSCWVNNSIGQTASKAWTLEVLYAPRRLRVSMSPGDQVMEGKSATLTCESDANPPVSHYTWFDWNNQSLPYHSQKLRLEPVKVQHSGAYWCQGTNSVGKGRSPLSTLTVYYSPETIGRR
Description: as §1

[3] = target: T3, human Siglec-15 ECD-his protein (Acrobiosystems, Cat #: SG5-H52H3) (human, UniProt Q6ZMC9 20-263); test: BLI (Octet RED96), antibody on AHC sensor, Siglec-15 ECD-his as analyte
T3 construct: Bought protein; only its extracellular domain stood in the assay; also called human Siglec-15 protein; recombinant human Siglec-15 protein; not shown: his tag
T3 sequence: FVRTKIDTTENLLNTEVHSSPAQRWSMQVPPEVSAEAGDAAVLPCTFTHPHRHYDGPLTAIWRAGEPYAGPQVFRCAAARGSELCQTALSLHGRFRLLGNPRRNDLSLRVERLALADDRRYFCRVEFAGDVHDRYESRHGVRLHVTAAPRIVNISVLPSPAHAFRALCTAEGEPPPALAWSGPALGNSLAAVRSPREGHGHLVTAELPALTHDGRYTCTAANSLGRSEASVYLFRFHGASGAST
Description: Recombinant Human Siglec-15 Protein Affinity was determined using an Octet RED96 instrument (ForteBio) and an anti-human IgG Fc capture sensor (AHC biosensor, ForteBio, Cat #: 18-5060) according to the detailed procedures and methods provided by the manufacturer. Specifically, candidate antibodies were each diluted to a final concentration of 6 µg/mL and directly immobilized on AHC biosensors for kinetic measurements. The antigenic protein Siglec-15 ECD-his protein (Acrobiosystems, Cat #: SG5-H52H3) was diluted with 10× Kinetics buffer to 3 concentrations of 60 nM, 30 nM, and 15 nM separately and injected as the analyte for 120 s with a dissociation time of 400 s and then subjected to regeneration with 10 mM glycine HCl (pH 1.5) for 15 s. The association rate (kon) and dissociation rate (kdis) were calculated using a simple one-to-one Languir binding model (Octet Red96 data analysis software). The equilibrium dissociation constant (kD) was calculated as the ratio of kdis/kon.

[4] = target: T4, human PD-L1/B7-H1-his protein (Acrobiosystems, Cat PD1-H5229) (human, UniProt Q9NZQ7 19-238); test: ELISA on coated human PD-L1/B7-H1-his, antibody at 100 nM and 10 nM, goat anti-human IgG-HRP, OD450
T4 construct: Bought protein; not shown: his tag
Description: as §1

T4 sequence (Q9NZQ7 19-238 limits assumed): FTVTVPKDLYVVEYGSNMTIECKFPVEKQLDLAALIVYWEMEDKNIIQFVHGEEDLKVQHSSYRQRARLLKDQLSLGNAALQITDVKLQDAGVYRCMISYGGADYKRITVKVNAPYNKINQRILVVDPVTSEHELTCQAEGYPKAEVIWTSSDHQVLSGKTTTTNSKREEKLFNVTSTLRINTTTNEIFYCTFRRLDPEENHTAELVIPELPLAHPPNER
T1 sequence (P20138 18-259 limits assumed): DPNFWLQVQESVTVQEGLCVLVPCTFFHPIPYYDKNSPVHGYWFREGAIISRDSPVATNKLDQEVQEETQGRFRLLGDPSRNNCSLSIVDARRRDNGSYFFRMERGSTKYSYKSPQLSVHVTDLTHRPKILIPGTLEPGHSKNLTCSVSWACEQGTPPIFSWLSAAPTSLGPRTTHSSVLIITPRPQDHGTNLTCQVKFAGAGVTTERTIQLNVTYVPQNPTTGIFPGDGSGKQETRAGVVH

B1: PR300066 (Tab) (antibody, human IgG1, kappa, V domains shown)
VH: QVQLQQPGAELVKPGASVKMSCKASGYTFTSYWITWVIQRPGQGLEWIGDIYCGSDTMHYNEKFKNKATLTVDTSSSTAYMQLSSLTSEDSAVYYCARWWDYGSSYDYFDYWGQGTTLTVSS
VL: DIKMTQSPSSMYASLGERVTITCKASQDINSYLSWFQQKPGKSPKTLIYRANRLVDGVPSRFSGSGSGQDYSLTISSLEYEDMGIYYCLQYDEFPYTFGGGTKLEIKR
notes: variable region from clone 5G12 of WO 2018/057735A1, on human IgG1/kappa constant regions; also called 5G12
B1 was tested, and the binding result [1] was “no binding (tested: 100 nM)”, the binding result [2] was “no binding (tested: 100 nM)” and the Kd [3] was 0.13 nM and 0.293 nM. For the same binder, the koff [3] was 9.5e-05 s⁻¹ and 0.000182 s⁻¹, the kon [3] was 730000 M⁻¹ s⁻¹ and 621000 M⁻¹ s⁻¹ and the binding result [4] was “no binding (tested: 100 nM)”.

B2: PR301285 (antibody, human IgG1, kappa, V domains shown)
VH: QVQLQESGPGLVKPSETLSLTCTVSGGSMISYYWSWLRQPPGKGLEWIGYIYYSGNTNYNPSLKSRITIAVDTSKNQFSLKLNSVTAADTAVYYCARERELHPYYFDYWGQGTLVTVSS
VL: DIQLTQSPSFLSASVGDRVTITCRASQGIDNYLAWYQQKPGKAPKVLIYAASTLQSGVPSRFSGSGSGTEFTLTISSLQPEDFATYYCQQLNSYPLTFGGGTKVEIKR
With B2 the binding result [1] was “no binding (tested: 100 nM)”, the binding result [2] was “no binding (tested: 100 nM)” and the Kd [3] was less than 0.001 nM. For the same binder, the koff [3] was less than 1e-07 s⁻¹, the kon [3] was 529000 M⁻¹ s⁻¹ and the binding result [4] was “no binding (tested: 100 nM)”.

B3: PR301286 (antibody, human IgG1, kappa, V domains shown)
VH: QVQLVESGGGVVQPGKSLRLSCAASGFTFSSYGMHWVRQAPGKGLEWVAVIWIDGSNRYYAASVKGRFTISRDNSKNTLYLQMNSLRAEDTAVYYCTRGYGDYAYVMDVWGQGASVTVSS
VL: DIVMTQSPLSLPVTPGEPASISCRSSQSLLPGNGYNYLDWYLQKPGQSPQLLIYLGSNRASGVPDRFSGSGSGTDFTLKISRVEAEDVGIYYCMQALQSPLTFGGGTKVEIKR
notes: Parent of the PTM variants PR301286-1, -3, -5, -6, -7
B3 was tested, and the binding result [1] was “no binding (tested: 100 nM)”, the binding result [2] was “no binding (tested: 100 nM)” and the Kd [3] was less than 0.001 nM. For the same binder, the koff [3] was less than 1e-07 s⁻¹, the kon [3] was 368000 M⁻¹ s⁻¹ and 292000 M⁻¹ s⁻¹ and the binding result [4] was “no binding (tested: 100 nM)”.

B4: PR301289 (antibody, human IgG1, kappa, V domains shown)
VH: QVQLVQSGAEVKKPGASVKVSCRASGYTFTSYDINWVRQATGQGLEWMGWMNPHSGDTGYAQNFQGRVTMTWNTSISTAYMELSSLRSEDTAVYYCARRRVGVYYYGMDVWGQGTTVTVSS
VL: ENVLTQSPGTLSLSPGERATLSCRASQSVSSSYFGWYQQKPGQAPRLLIYGASSRATGIPDRFSGSGSGTDFTLTISRLEPEDFAVYYCQQYGSSPITFGQGTRLEIKR
notes: Parent of the PTM variants PR301289-1 and -2
For B4, the binding result [1] was “no binding (tested: 100 nM)”, the binding result [2] was “no binding (tested: 100 nM)” and the Kd [3] was 0.173 nM. The koff [3] was 6.47e-05 s⁻¹, the kon [3] was 373000 M⁻¹ s⁻¹ and the binding result [4] was “no binding (tested: 100 nM)”.
